Assay results: patent US20240026019A1 (Innovent, published 2024)

T1: human TNFR2 overexpressed on CHO-S cells (CHOS-hTNFR2) (human, UniProt P20333 23-461)
T1 construct: also called hTNFR2 CHO-S; human TNFR2 molecule overexpressed on CHO-S cells
T1 sequence: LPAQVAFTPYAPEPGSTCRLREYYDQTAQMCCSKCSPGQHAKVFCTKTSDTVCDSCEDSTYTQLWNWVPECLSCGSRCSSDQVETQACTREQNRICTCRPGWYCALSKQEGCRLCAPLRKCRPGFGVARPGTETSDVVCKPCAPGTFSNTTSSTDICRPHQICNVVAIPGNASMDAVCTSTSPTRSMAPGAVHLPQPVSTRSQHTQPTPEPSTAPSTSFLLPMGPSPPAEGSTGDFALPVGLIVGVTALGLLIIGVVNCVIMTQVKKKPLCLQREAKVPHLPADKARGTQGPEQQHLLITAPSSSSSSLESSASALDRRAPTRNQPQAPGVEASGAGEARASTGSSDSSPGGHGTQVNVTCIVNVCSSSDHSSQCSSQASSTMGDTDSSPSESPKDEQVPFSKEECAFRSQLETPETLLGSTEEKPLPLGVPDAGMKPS

T2: TNFR2 on human K562 chronic myeloid leukemia cells and on primary human Treg cells (human, UniProt P20333 23-461)
T2 construct: whole, on cells; also called K562 cells
T2 sequence (looked up): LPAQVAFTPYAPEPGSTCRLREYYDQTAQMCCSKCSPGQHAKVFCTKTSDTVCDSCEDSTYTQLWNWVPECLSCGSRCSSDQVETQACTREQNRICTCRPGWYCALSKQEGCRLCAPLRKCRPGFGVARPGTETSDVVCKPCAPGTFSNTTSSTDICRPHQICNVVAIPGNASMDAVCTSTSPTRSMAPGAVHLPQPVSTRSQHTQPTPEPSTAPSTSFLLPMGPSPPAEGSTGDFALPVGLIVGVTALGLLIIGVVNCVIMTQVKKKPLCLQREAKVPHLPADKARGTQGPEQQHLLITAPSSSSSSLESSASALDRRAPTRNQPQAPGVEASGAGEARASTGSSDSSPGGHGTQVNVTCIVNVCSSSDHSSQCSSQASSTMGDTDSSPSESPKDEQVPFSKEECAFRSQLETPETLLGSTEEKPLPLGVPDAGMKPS


Experiments:
[1] = molecular target: T1, human TNFR2 overexpressed on CHO-S …; test: flow cytometry on CHO-S cells overexpressing human TNFR2 (chimeric antibody 69B1 beside the humanized antibodies), MFI-FL2A; unit taken from the axis Conc log(nM)
Protocol: (§1) In the study, the binding of the antibodies, after being diluted in a gradient, to a stable CHO-S strain line overexpressing human TNFR2 on the surface was assayed by using a flow cytometer.
(§2) CHOS-hTNFR2 cells were counted and diluted to 2×10⁶ cells/mL, and added to a U-bottom 96-well plate at 100 μL/well. The mixture was centrifuged at 300 g for 5 min, and the cell medium was removed. Samples (the humanized antibodies hz3C4.7, hz69B1.5, hz69B1.6, hz69B1.11 and hz69B1.20, the chimeric antibody 69B1, and the positive control antibody OPI) (the antibodies were subjected to a three-fold dilution in PBS from the maximum antibody concentration of 300 nM) were added to the U-plate, and the cells were resuspended at 100 μL/well and left to stand on ice for 30 min. The suspension was centrifuged at 400 g for 5 min, and the supernatant was removed. The cells were washed twice with PBS. The mixture was centrifuged at 300 g for 5 min, and PBS was removed. 100 μL of anti-human Fc PE-labeled secondary antibody (SoutherBiotech; 2040-09) (diluted at a 1:100 ratio in PBS) was added to each well and incubated on ice for 30 min in the dark. The mixture was centrifuged at 400 g for 5 min, and the supernatant was removed. The cells were washed 3 times with PBS. The cells were resuspended in 200 μL of 1×PBS and assayed by FACS.

[2] = molecular target: T1, human TNFR2 overexpressed on CHO-S …; test: flow cytometry on CHO-S cells overexpressing human TNFR2 (positive control), MFI-FL2A; unit taken from the axis Conc log(nM)
Protocol: as §1, §2

[3] = molecular target: T1, human TNFR2 overexpressed on CHO-S …; test: flow cytometry on CHO-S cells overexpressing human TNFR2 (positive control), MFI-FL2-A; unit taken from the axis Conc log(nM)
Protocol: In the study, the binding of the chimeric antibodies of the present invention, after being diluted in a gradient, to a stable CHO-S cell strain overexpressing human TNFR2 on the surface was assayed by using a flow cytometer. cDNAs encoding human TNFR2 (SEQ ID NO: 60) and cynomolgus monkey TNFR2 (SEQ ID NO: 61) were cloned into pCH01.0 vectors (Invitrogen), which were transfected into CHO-S cells (Invitrogen) to produce CHO-S cells overexpressing human TNFR2 (CHOS-hTNFR2) and CHO-S cells overexpressing cynomolgus monkey TNFR2 (CHOS-cTNFR2).
CHOS-hTNFR2 cells or CHOS-cTNFR2 cells were counted and diluted to 2×10⁶ cells/mL, and added to a U-bottom 96-well plate at 100 μL/well. The mixture was centrifuged at 300 g for 5 min, and the cell medium was removed. The dilutions of the samples (the chimeric antibodies 3C4, 69B1, and 72G8 and the positive control antibody OPI) (the antibodies were subjected to a three-fold serial dilution in PBS from the maximum antibody concentration of 300 nM) were added to the U-plate, and the cells were resuspended at 100 μL/well and left to stand on ice for 30 min. The suspension was centrifuged at 400 g for 5 min, and the supernatant was removed. The cells were washed twice with PBS. The mixture was centrifuged at 300 g for 5 min, and PBS was removed. […]

[4] = molecular target: T2, TNFR2 on human K562 chronic myeloid …; test: flow cytometry on primary human Treg cells, MFI(FL2); unit taken from the axis Conc log(nM)
Protocol: Tregs were prepared as follows: Human PBMC cells ([…], PB005F) were thawed, CD4⁺ CD25⁺ CD127^low cells were sorted by flow cytometry, and Treg cells were isolated. According to CD4⁺:anti-CD3/CD28 Beads=1:1, Dynabeads Human T-Activator CD3/CD28 (Gibco, 11131D) was added, followed by 10 ng/mL recombinant IL2, and the cells were stimulated for 7 days.
Assay steps: The mixture was centrifuged at 400 g for 5 min, and the cell medium was removed. K562 or Treg cells were resuspended in PBS. After counting, the cells were adjusted to a density of 2×10⁶/mL, and the cell suspension was added to a U-bottom 96-well plate at 100 μL/well. The test antibody was added, subjected to a three-fold gradient dilution, and left to stand on ice for 30 min. The mixture was centrifuged at 300 g for 5 min, and the supernatant was removed. The cells were washed once with PBS. The mixture was centrifuged at 300 g for 5 min, and PBS was removed. 100 μL of PE-anti-human Fc antibody (SOUTHERN BIOTECH, 2040-09) diluted at a ratio of 1:200 was added to each well. The mixture was incubated on ice for 30 min in the dark. The mixture was centrifuged at 400 g for 5 min, and the supernatant was removed. The cells were washed twice with PBS. The cells were resuspended in 100 μL of PBS and assayed by using a flow cytometer (BD, ACCURIC6 plus).

Binder | EC50 [1] | EC50 [2] | EC50 [3] | EC50 [4]
chimeric antibody 69B1 (antibody, human IgG1, kappa, V domains shown) VH: QIQLVQSGPELKKPGETVKISCKASGYTFTDYSMNWVKQAPGKGLKWMGWLNTETGEPIYADDFKGRFVFSLETSASTAYLEINNLNDEDTATYFCAREAIYYGTSYVLDYWGQGTSVTVSS VL: DIVLTQSPASLAVSLGQRATISCRASESVEYYGTNFMQWYQQKPGQPPKLLIYSASNVESGVPARFSGSGSGTDFSLNIHPVEEDDIAVYFCQQSRKDPSTFGEGTNLEIKR | 0.489 nM |  |  | 
positive control antibody OPI (humanized antibody SBT-002e in WO 2017083525) (antibody, V domains shown, also called Benchmark OPI) VH: QVTLKESGPALVKPTQTLTLTCTFSGFSLSTSGMGVGWIRQPPGKALEWLAHIWWDDDKFYNPSLKSRLTISKDTSKNQVVLTMTNMDPVDTATYYCARLTGTRYFDYWGQGTTVTVSS VL: DVQMTQSPSSLSASVGDRVTITCKASQDINKFIAWYQQKPGKAPKLLIHYTSTLQPGIPSRFSGSGSGRDYTFTISSLQPEDIATYYCLQYGNLWTFGGGTKVEIK |  | 0.486 nM | 2.62 nM | 0.0738 nM
